Measured values: US20240309090A1, “MODULATION OF ANDROGEN SIGNALING TO INNATE IMMUNE KILLING OF PROSTATE CANCER” (Brown University, priority 2023, published 2024)

B1: monalizumab (antibody, chains of the INN, looked up, V domains shown)
VH: QVQLVQSGAEVKKPGASVKVSCKASGYTFTSYWMNWVRQAPGQGLEWMGRIDPYDSETHYAQKLQGRVTMTTDTSTSTAYMELRSLRSDDTAVYYCARGGYDFDVGTLYWFFDVWGQGTTVTVSS
VL: DIQMTQSPSSLSASVGDRVTITCRASENIYSYLAWYQQKPGKAPKLLIYNAKTLAEGVPSRFSGSGSGTDFTLTISSLQPEDFATYYCQHHYGTPRTFGGGTKVEIK

Tests used:
[1] = system: PC3 cell line; assay: Flow cytometry of HLA-E surface expression on AR-negative PC3; type: cell-based; details: for surface expression of HLA-E: PC3, DHT 30 nM, vorinostat 0.3 μM, panobinostat 3 nM, 48 h
Source text: (§1) To evaluate the modulation of the androgen receptor and tumor HLA-E expression, we astably transduced AR negative cell lines PC3 and DU145 with an Androgen Response Element (ARE) GFP reporter (FIG. 16H). […] Using AR+ constructed cell lines, PC3 and DU145, we sought to determine the dependence of HLA-E expression and possible modulation by AR. […] Although potential therapies targeting immune enhancement are being explored, the expression of exhaustion markers such as PD-1, NKG2A, and potential engaging ligands that diminish their cytotoxic function limits their application. Exploring these factors with new combination approaches, such as ARi and anti-NKG2A, and understanding the modulation of its targets upon treatment is key in overcoming immune-resistant scenarios, especially in prostate cancer.
Experiments were conducted with noncytotoxic doses of vorinostat (0.3 μM) and panobinostat (3 nM).
(§2) PCa cells were plated at a density of 3×10^5 cells per well of a 6-well plate and adhered overnight. […] After treatment, cells were trypsinized, stained, and incubated (Cell Staining Buffer SouthernBiotech #0225-01S) with the corresponding antibody for 45-60 min at 4° C. Viability dye was added with each run. NK-92 cells and patient-derived cells were stained similarly. Markers used for experiments included: Thermofisher HLA-E Monoclonal Antibody (3D12HLA-E), Alexa Fluor™ 488, eBioscience™, CD274 (PD-L1, B7-H1) Monoclonal Antibody (MIH1), eFluor™ 450, eBioscience™, Cell Signaling PD-1 (D4W2J) XPR Rabbit mAb, SYTOX™ Orange Dead Cell Stain, for flow cytometry, BioLegend APC anti-human CD159a (NKG2A) Antibody #375108, BioLegend APC anti-human CD69 Antibody #310909, BioLegend Alexa Fluor® 647 anti-human CD137 (4-1BB) [4B4-1] #309823. For staining of the patient-derived PBMCs and subsequent NK cell characterization, the following antibodies were used: BioLegend Anti-Perforin Mouse Monoclonal Antibody (PerCP Cy5.50, clone: dG9) #308113, BioLegend Anti-Granzyme B Mouse Monoclonal Antibody (FITC, clone: GB11) #515403, BioLegend Anti-CD56 Mouse Monoclonal Antibody (Alexa Fluor® 700, clone: 5.1H1) #362521, and BioLegend (PE anti-human CD45 Antibody) #304008.

[2] = system: DU145; assay: Flow cytometry of HLA-E surface expression on non-AR-transduced DU145; type: cell-based
Source text: as §1
PCa cells were plated at a density of 3×10^5 cells per well of a 6-well plate and adhered overnight. […] After treatment, cells were trypsinized, stained, and incubated (Cell Staining Buffer SouthernBiotech #0225-01S) with the corresponding antibody for 45-60 min at 4° C. Viability dye was added with each run. NK-92 cells and patient-derived cells were stained similarly. […]

[3] = system: NK cells; assay: Flow cytometry of NKG2A and PD-1 surface expression on NK cells; type: cell-based
Protocol: as §2
Methods: PCa cell lines (LNCaP, 22Rv1 [ARv7 mutation], DU145[AR-], PC3 [AR-]) were cocultured with NK-92 cells and treated with ARi (enzalutamide [enza] and darolutamide [daro]) or in combination with anti-NKG2A antibody monalizumab. Immune cell-mediated tumor cell killing assays and multiplexed cytokine profiling were performed. NKc expression of NKG2A and PCa cells expression of HLA-E were investigated by flow cytometry. The AR-negative cell lines (PC3 and DU145) were stably transduced with a functional AR pathway to evaluate the modulation of HLA-E by AR. The activation status of peripheral blood NKc isolated from patients with PCa before and post-initiation of androgen deprivation therapy (ADT) was investigated by flow cytometry.

[4] = system: LNCaP cells; assay: Flow cytometry of HLA-E / PD-L1 surface expression on LNCaP; type: cell-based; details: LNCaP, DHT 30 nM, vorinostat 0.3 μM, panobinostat 3 nM, 48 h
Protocol: The effect of ARi on the NKG2A ligand, HLA-E, was investigated by flow cytometry on PCa cells treated with enza and daro.
as §2
The effect of androgen pathway inhibitors in the expression of HLA-E, a negative and key negative modulator of NK cell function, was also performed using Flow Cytometry. PD-L1 expression levels were also measured. In advance, The NK cell immune checkpoint inhibitor monalizumab (targeting NKG2A and its ligand, HLA-E) was also combined with ARi.

[5] = system: LNCaP; assay: Co-culture of LNCaP with NK-92 cells, immune-mediated tumor cell killing; type: cell-based; details: LNCaP + NK-92 1:1, enzalutamide 10 μM, FIG. 15A
Protocol: (§3) They were co-treated with enzalutamide ([…]) or darolutamide (20 μM) for 48 h. Doses of AR inhibitors (ARi) used in the co-culture experiments were based on previous IC50 experiments. […] The immune-mediated effect of NK-92 on the PCa cell lines in the presence of enzalutamide (immune enhancement death) was normalized to baseline immune and tumor cell killing in each condition [(tumor cells+immune cells)-tumor baseline death=baseline immune death]. […] Cytokine analysis was performed to investigate the activation phenotype of NK cells when treated with ARi.
(§4) Prostate cancer cell lines were dyed with the blue CMAC live-cell dye (Thermo Fisher Scientific #C2110, per manufacturer protocol). Blue-fluorescent cancer cells were plated at a density of 10,000 cells per well of a 48-well plate. NK-92 cells were dyed with green CMFDA (Cayman Chemical Company #19583, per manufacturer protocol). Green-fluorescent NK-92 cells were added to the blue-fluorescent cancer cells at a 1:1 ratio. Enzalutamide (10 μM), darolutamide (20 μM), and 1 μM ethidium homodimer (EthD-1) were added at the same time as the NK cells. After 24 hours of co-culture, images of live cancer cells, live NK cells, and dead cells were taken using a fluorescent microscope. The co-culture experiments were run with internal control conditions and as a single treatment. Normalization was performed after analysis to take baseline death conditions into each experiment run. […] Cell adhered over 24 h, and when patient-derived NK cells were added, a control well was trypsinized, and cells resuspended and counted to adjust a 1:1 ratio before treatment addition. […]
(§5) Live cancer cells, NK cells, and dead cells were quantified using FIJI (Fiji Is Just ImageJ) software for images derived from fluorescent co-culture images. Images from the ImageXpress system were quantified using MetaXpress cytoplasmic/nuclear staining software. The percent of dead tumor cells in each well was quantified, and this percentage was normalized by subtracting baseline death from cancer cell-only wells, NK cell-only wells, or both.

[6] = system: 22Rv1; assay: Co-culture of 22Rv1 with NK-92 cells, immune-mediated tumor cell killing; type: cell-based; details: 22Rv1 + NK-92 1:1, enzalutamide 10 μM, FIG. 15B
Protocol: as §3, §4, §5

[7] = system: PC cell lines (LNCap, 22Rv1, DU145, PC3); assay: Co-cultures of PC cell lines with NK cells (1:1), immune-mediated PC killing; type: cell-based
Protocol: (§6) Prostate cancer cell lines were dyed with the blue CMAC live-cell dye (Thermo Fisher Scientific #C2110, per manufacturer protocol). Blue-fluorescent cancer cells were plated at a density of 10,000 cells per well of a 48-well plate. NK-92 cells were dyed with green CMFDA (Cayman Chemical Company #19583, per manufacturer protocol). Green-fluorescent NK-92 cells were added to the blue-fluorescent cancer cells at a 1:1 ratio. Enzalutamide (10 μM), darolutamide (20 μM), and 1 μM ethidium homodimer (EthD-1) were added at the same time as the NK cells. After 24 hours of co-culture, images of live cancer cells, live NK cells, and dead cells were taken using a fluorescent microscope. The co-culture experiments were run with internal control conditions and as a single treatment. Normalization was performed after analysis to take baseline death conditions into each experiment run. To optimize the high output of these experiments, a subset of co-cultures were performed using the ImageXpress® Micro Confocal High-Content Imaging. This analysis maintained the experiment conditions, drug concentrations, and the dyeing process. When GFP-labeled tumor cells were used for culture assays, they were added in a 1:1 ratio. Cell adhered over 24 h, and when patient-derived NK cells were added, a control well was trypsinized, and cells resuspended and counted to adjust a 1:1 ratio before treatment addition. The experiments with blocking antibodies were performed using the ImageXpress system. TRAIL blocking ab was purchased from Santa Cruz TRAIL Antibody (RIK-2): sc-56246, and IFN gamma blocking Monoclonal Antibody (NIB42, #6-7318-81) was purchased from Thermo Fisher. The blocking mAb was added when NK cells were combined with tumor cells.
as §5, with “both. A two-way ANOVA was used to calculate the interaction effect between drug treatment and NK cells.” for “both.”
In groups with a significant interaction effect, data was further normalized in the cancer cell+NK cells+drug treatment well by subtracting out death in the cancer cell+drug well. A one-way ANOVA and multiple comparison analysis with subsequent t-tests were used to calculate the statistical significance of the difference between this group and the cancer cell+NK cell well. GraphPad Prism Version 9.5.1 was used for statistical analysis.
We conducted cell viability assays to investigate the effect of Enza and Daro on PC cells (LNCap, 22Rv1 [ARv7 mutation], DU145, PC3 [AR-]) and NK-92 cells. We performed co-culture experiments with PC and NK cells in a 1:1 ratio and analyzed immune cell-mediated tumor cell killing (ImageXpress Confocal HT). Cytokine profiling (Luminex 200) of culture supernatants was performed following treatment with ARi−/+ and anti-IFN-γ antibodies. In vivo studies were performed in NCr Nude mice harboring subcutaneous PC tumors treated orally with Daro (50 mg/kg/bid) and Enza (30 mg/kg/bid) for 4 weeks.
We performed ATP-based (CellTiter-Glo) viability assays to investigate the effect of Enzalutamide and Darolutamide on PC cell lines (LNCap, 22Rv1 [ARv7 mutation], DU145, PC3 [AR-]) and NK-92 cells. We performed co-culture experiments with PC and NK cells at a 1:1 ratio throughout 4 h, 6 h, 12 h, 24 h, and 48 h periods. We analyzed immune cell-mediated tumor cell killing in the presence of Enza and Darolutamide (ImageXpress Confocal HT). Western Blotting was performed to evaluate different protein expression levels and their regulation related to sensitivity in mediating immune-mediated cell killing (apoptotic family). […]

[8] = system: LNCaP; assay: Co-culture of GFP-expressing LNCaP with patient-derived NK cells; type: cell-based, human
Source text: (§7) To validate an additive effect of ARi and monalizumab enhancing NK cell cytotoxicity, we performed a co-culture assay with GFP-labeled PCa cell lines (including ARi-sensitive LNCaP and ARi-resistant PC3) and patient-derived NK cells. The NK cells were negatively selected from whole blood from patients with metastatic prostate cancer before initiation of androgen deprivation therapy. The addition of enzalutamide or darolutamide enhanced the cytotoxicity of NK cells, and the combination of ARi with monalizumab potentiated immune killing (FIG. 15C-D).
as §6
(§8) NK cells were isolated from patients harboring metastatic castration-sensitive prostate cancer using the MojoSort™ Human NK Cell Isolation Kit (#480053). Patients signed informed consent for IRB-approved research protocol number 2055-13, allowing the collection of peripheral blood samples. […] The untouched NK cells (CD56+, CD3−) were collected, and the purity of isolation was determined by flow cytometry using anti-CD56 (BioLegend 362503). […]

[9] = system: PC3; assay: Co-culture of GFP-expressing PC3 with patient-derived NK cells; type: cell-based, human
Source text: as §7, §6, §8

Molecule | surface expression of HLA-E [1] | HLA-E expression ([1]; non-AR-transduced PC3) | HLA-E expression [2] | surface expression of NKG2A [3] | surface expression of PD-1 ([3]; MFI) | expression of HLA-E upon DHT treatment with HDACi [4] | NK cell killing of PCa cells (immune enhancement) [5] | NK cell killing of PCa cells (immune enhancement) [6] | immune-mediated NK cell killing of PCa cells (in words) ([7]; co-culture PCa + NK-92 cells) | ARi immune enhancement effect ([7]; co-cultures of PC cell lines and NK cells with Enzalutamide (API), [T] plus monalizumab) | killing of PCa cells by patient-derived NK cells (in words) ([8]; GFP LNCaP, 1:1, 24 h, monalizumab in combination with enza and daro) | median number of cells in co-culture ([8]; LNCaP and NK cells, monalizumab added to darolutamide or enzalutamide, FIG. 3B) | killing of PCa cells by patient-derived NK cells (in words) ([9]; GFP PC3, 1:1, 24 h, monalizumab in combination with enza and daro) | median number of cells in co-culture ([9]; PC3 and NK cells, monalizumab added to darolutamide or enzalutamide, FIG. 3A)
C[C@]12CCC(=O)C[C@@H]1CC[C@@H]1[C@@H]2CC[C@]2(C)[C@@H](O)CC[C@@H]12 [DHT, dihydrotestosterone] | did not alter | 11.28% | 1.84% | reversed | reversed |  |  |  |  |  |  |  |  | 
O=C(CCCCCCC(=O)Nc1ccccc1)NO [vorinostat] | did not change |  |  |  |  | did not change significantly |  |  |  |  |  |  |  | 
B1 |  |  |  |  |  |  | 19.89% | 18.29% | did not enhance | 43.92% | potentiated | decreases | potentiated | decreases
